Measured values reported in paper PMC9618068.

Key:
[1] = biological target: actin (ATP-G-actin from chicken skeletal muscle) (chicken) (UniProt P68139)
[2] = biological target: actin (ATP-G-actin from chicken skeletal muscle) (chicken) (UniProt P68139); test: ITC

Row | Substance | Pi released from actin in the presence of F1^15-160, compared to F1A [1] [%] | stoichiometry N [2]
1 | F1^15-160, an N-terminally truncated version of F1 that lacks Asn13 (domain or fragment) | 25 | 
2 | fragmin domain-1 (F1) (residues 1 to 160) (domain or fragment) |  | 0.956
